Assay [1] addresses T1, CD3 on human T cells (human PBMCs or isolated T cells used as effector cells) (human, UniProt P07766 23-207; P04234 22-171; P09693 23-182). The assay can be described thus: cell-based or functional assay.
Assay [2] addresses T1, CD3 on human T cells (human PBMCs or …). The assay can be described thus: cell-based or functional assay. The source holds these as a separate data set.

T1 sequence (P07766 23-207, chain 1 of 3): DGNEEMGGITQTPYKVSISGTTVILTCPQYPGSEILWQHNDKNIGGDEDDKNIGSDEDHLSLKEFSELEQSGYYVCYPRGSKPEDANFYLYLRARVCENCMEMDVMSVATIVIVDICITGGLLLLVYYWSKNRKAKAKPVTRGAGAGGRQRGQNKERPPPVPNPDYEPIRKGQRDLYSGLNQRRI
T1 sequence (P04234 22-171, chain 2 of 3): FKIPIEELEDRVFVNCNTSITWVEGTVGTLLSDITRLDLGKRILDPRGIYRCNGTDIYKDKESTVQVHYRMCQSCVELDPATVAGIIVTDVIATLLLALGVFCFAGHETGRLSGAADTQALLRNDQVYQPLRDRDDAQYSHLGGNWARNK
T1 sequence (P09693 23-182, chain 3 of 3): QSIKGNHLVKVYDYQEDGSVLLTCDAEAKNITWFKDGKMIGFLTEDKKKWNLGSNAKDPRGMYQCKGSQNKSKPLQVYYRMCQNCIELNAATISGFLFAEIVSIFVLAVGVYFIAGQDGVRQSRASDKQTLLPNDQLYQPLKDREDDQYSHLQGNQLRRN

B1: PR006002, anti-B7H4xCD3 VH(A1)-Fc-scFv(PR003366), hIgG1(dCH1, KiH, LALA) (bispecific antibody)
chain 1: not shown
chain 2: EIVMTQSPASLSVSPGERATLSCRASQSVSSNLAWYQQKPGQAPRLLIYGASTRATGIPARVSGGGSGTEFTLTISSLQSEDFAVYYCQQYKNWPFTFGPGTKLEIKGGGGSGGGGSGGGGSGGGGSQVQLVQSGAEVKKPGSSMRVSCKASEDTFSSYAISWVRQAPGQGLEWMGGTAPIFGTTNYAQKFQGRVTITADKSTSTAYMELSSLRSEDTAVYYCARGGPYFDYWGQGTLVTVSSASEPKSSDKTHTCPPCPAPEAAGGPSVFLFPPKPKDTLMISRTPEVTCVVVDVSHEDPEVKFNWYVDGVEVHNAKTKPREEQYNSTYRVVSVLTVLHQDWLNGKEYKCKVSNKALPAPIEKTISKAKGQPREPQVCTLPPSREEMTKNQVSLSCAVKGFYPSDIAVEWESNGQPENNYKTTPPVLDSDGSFFLVSKLTVDKSRWQQGNVFSCSVMHEALHNHYTQKSLSLSPGK
For B1, in assay [1], the “EC50 of T cell-mediated cytotoxicity to MDA-MB-468 (RTCA)” value amounted to 0.033 nM and the “Max cytotoxicity (%) of T cell-mediated cytotoxicity to MDA-MB-468 (RTCA)” value is 94.4%. For the same molecule, in assay [2], the “EC50 of T cell-mediated cytotoxicity to MDA-MB-468 (RTCA, human T cells, E:T 10:1)” value (“EC50 … (RTCA, human T cells, E:T 10:1)” for short) is 0.00111 nM.

B2: PR010984, anti-B7H4xCD3 S137-Fc-scFv(PR003366), hIgG1(dCH1, KIH, AAA) (bispecific antibody)
chain 1: EVQLLESGGGLVQPGGSLRLSCAASGRTSGIPAMSWVRQAPGKEREFVAMAWSGGGTIYADSVKGRFTISRDNSKNTLYLQMNSLRAEDTAVYYCAAGRSTSNYADQYNYWGQGTQVTVSSASEPKSSDKTHTCPPCPAPEAAGAPSVFLFPPKPKDTLMISRTPEVTCVVVDVSHEDPEVKFNWYVDGVEVHNAKTKPREEQYNSTYRVVSVLTVLHQDWLNGKEYKCKVSNKALPAPIEKTISKAKGQPREPQVYTLPPCREEMTKNQVSLWCLVKGFYPSDIAVEWESNGQPENNYKTTPPVLDSDGSFFLYSKLTVDKSRWQQGNVFSCSVMHEALHNHYTQKSLSLSPGK
chain 2: EIVMTQSPASLSVSPGERATLSCRASQSVSSNLAWYQQKPGQAPRLLIYGASTRATGIPARVSGGGSGTEFTLTISSLQSEDFAVYYCQQYKNWPFTFGPGTKLEIKGGGGSGGGGSGGGGSGGGGSQVQLVQSGAEVKKPGSSMRVSCKASEDTFSSYAISWVRQAPGQGLEWMGGTAPIFGTTNYAQKFQGRVTITADKSTSTAYMELSSLRSEDTAVYYCARGGPYFDYWGQGTLVTVSSASEPKSSDKTHTCPPCPAPEAAGAPSVFLFPPKPKDTLMISRTPEVTCVVVDVSHEDPEVKFNWYVDGVEVHNAKTKPREEQYNSTYRVVSVLTVLHQDWLNGKEYKCKVSNKALPAPIEKTISKAKGQPREPQVCTLPPSREEMTKNQVSLSCAVKGFYPSDIAVEWESNGQPENNYKTTPPVLDSDGSFFLVSKLTVDKSRWQQGNVFSCSVMHEALHNHYTQKSLSLSPGK
For the molecule B2, in assay [2], the “EC50 … (RTCA, human T cells, E:T 10:1)” value was 0.576 nM.

B3: PR010983, anti-B7H4xCD3 S136-Fc-scFv(PR003366), hIgG1(dCH1, KIH, AAA) (bispecific antibody)
chain 1: EVQLLESGGGLVQPGGSLRLSCAASGRTSGIPAMSWVRQAPGKEREFVAMAWSGGGTIYADSVKGRFTISRDNSKNTLYLQMNSLRAEDTAVYYCAAGRSTSNRADQYNYWGQGTQVTVSSASEPKSSDKTHTCPPCPAPEAAGAPSVFLFPPKPKDTLMISRTPEVTCVVVDVSHEDPEVKFNWYVDGVEVHNAKTKPREEQYNSTYRVVSVLTVLHQDWLNGKEYKCKVSNKALPAPIEKTISKAKGQPREPQVYTLPPCREEMTKNQVSLWCLVKGFYPSDIAVEWESNGQPENNYKTTPPVLDSDGSFFLYSKLTVDKSRWQQGNVFSCSVMHEALHNHYTQKSLSLSPGK
chain 2: EIVMTQSPASLSVSPGERATLSCRASQSVSSNLAWYQQKPGQAPRLLIYGASTRATGIPARVSGGGSGTEFTLTISSLQSEDFAVYYCQQYKNWPFTFGPGTKLEIKGGGGSGGGGSGGGGSGGGGSQVQLVQSGAEVKKPGSSMRVSCKASEDTFSSYAISWVRQAPGQGLEWMGGTAPIFGTTNYAQKFQGRVTITADKSTSTAYMELSSLRSEDTAVYYCARGGPYFDYWGQGTLVTVSSASEPKSSDKTHTCPPCPAPEAAGAPSVFLFPPKPKDTLMISRTPEVTCVVVDVSHEDPEVKFNWYVDGVEVHNAKTKPREEQYNSTYRVVSVLTVLHQDWLNGKEYKCKVSNKALPAPIEKTISKAKGQPREPQVCTLPPSREEMTKNQVSLSCAVKGFYPSDIAVEWESNGQPENNYKTTPPVLDSDGSFFLVSKLTVDKSRWQQGNVFSCSVMHEALHNHYTQKSLSLSPGK
Regarding B3, the “EC50 … (RTCA, human T cells, E:T 10:1)” value in assay [2] turned out to be 0.0602 nM.

B4: PR010985, anti-B7H4xCD3 S138-Fc-scFv(PR003366), hIgG1(dCH1, KIH, AAA) (bispecific antibody)
chain 1: EVQLLESGGGLVQPGGSLRLSCAASGRTSGIPAMSWVRQAPGKGLEWVAMAWSGGGTIYADSVKGRFTISRDNSKNTLYLQMNSLRAEDTAVYYCAAGRSTSNYADQYNYWGQGTLVTVSSASEPKSSDKTHTCPPCPAPEAAGAPSVFLFPPKPKDTLMISRTPEVTCVVVDVSHEDPEVKFNWYVDGVEVHNAKTKPREEQYNSTYRVVSVLTVLHQDWLNGKEYKCKVSNKALPAPIEKTISKAKGQPREPQVYTLPPCREEMTKNQVSLWCLVKGFYPSDIAVEWESNGQPENNYKTTPPVLDSDGSFFLYSKLTVDKSRWQQGNVFSCSVMHEALHNHYTQKSLSLSPGK
chain 2: EIVMTQSPASLSVSPGERATLSCRASQSVSSNLAWYQQKPGQAPRLLIYGASTRATGIPARVSGGGSGTEFTLTISSLQSEDFAVYYCQQYKNWPFTFGPGTKLEIKGGGGSGGGGSGGGGSGGGGSQVQLVQSGAEVKKPGSSMRVSCKASEDTFSSYAISWVRQAPGQGLEWMGGTAPIFGTTNYAQKFQGRVTITADKSTSTAYMELSSLRSEDTAVYYCARGGPYFDYWGQGTLVTVSSASEPKSSDKTHTCPPCPAPEAAGAPSVFLFPPKPKDTLMISRTPEVTCVVVDVSHEDPEVKFNWYVDGVEVHNAKTKPREEQYNSTYRVVSVLTVLHQDWLNGKEYKCKVSNKALPAPIEKTISKAKGQPREPQVCTLPPSREEMTKNQVSLSCAVKGFYPSDIAVEWESNGQPENNYKTTPPVLDSDGSFFLVSKLTVDKSRWQQGNVFSCSVMHEALHNHYTQKSLSLSPGK
As to B4, the “EC50 … (RTCA, human T cells, E:T 10:1)” value in assay [2] was found to be 2.91 nM.

B5: PR010982, anti-B7H4xCD3 S135-Fc-scFv(PR003366), hIgG1(dCH1, KIH, AAA) (bispecific antibody)
chain 1: EVQLLESGGGLVQPGGSLRLSCAASGRTSGIPAMSWVRQAPGKGLEWVAMAWSGGGTIYADSVKGRFTISRDNSKNTLYLQMNSLRAEDTAVYYCAAGRSTSNRADQYNYWGQGTLVTVSSASEPKSSDKTHTCPPCPAPEAAGAPSVFLFPPKPKDTLMISRTPEVTCVVVDVSHEDPEVKFNWYVDGVEVHNAKTKPREEQYNSTYRVVSVLTVLHQDWLNGKEYKCKVSNKALPAPIEKTISKAKGQPREPQVYTLPPCREEMTKNQVSLWCLVKGFYPSDIAVEWESNGQPENNYKTTPPVLDSDGSFFLYSKLTVDKSRWQQGNVFSCSVMHEALHNHYTQKSLSLSPGK
chain 2: EIVMTQSPASLSVSPGERATLSCRASQSVSSNLAWYQQKPGQAPRLLIYGASTRATGIPARVSGGGSGTEFTLTISSLQSEDFAVYYCQQYKNWPFTFGPGTKLEIKGGGGSGGGGSGGGGSGGGGSQVQLVQSGAEVKKPGSSMRVSCKASEDTFSSYAISWVRQAPGQGLEWMGGTAPIFGTTNYAQKFQGRVTITADKSTSTAYMELSSLRSEDTAVYYCARGGPYFDYWGQGTLVTVSSASEPKSSDKTHTCPPCPAPEAAGAPSVFLFPPKPKDTLMISRTPEVTCVVVDVSHEDPEVKFNWYVDGVEVHNAKTKPREEQYNSTYRVVSVLTVLHQDWLNGKEYKCKVSNKALPAPIEKTISKAKGQPREPQVCTLPPSREEMTKNQVSLSCAVKGFYPSDIAVEWESNGQPENNYKTTPPVLDSDGSFFLVSKLTVDKSRWQQGNVFSCSVMHEALHNHYTQKSLSLSPGK
In the case of B5, the “EC50 … (RTCA, human T cells, E:T 10:1)” value in assay [2] was found to be 0.247 nM.

B6: PR010987, anti-B7H4xCD3 S140-Fc-scFv(PR003366), hIgG1(dCH1, KIH, AAA) (bispecific antibody)
chain 1: EVQLVESGGGLVQPGGSLRLSCAASGRTSGIPAMAWFRQAPGKGLEWVAMAWSGGGTIYADSVKGRFTISRDNSKNTLYLQMNSLRAEDTAVYYCARGRSTSNRADQYNYWGQGTLVTVSSASEPKSSDKTHTCPPCPAPEAAGAPSVFLFPPKPKDTLMISRTPEVTCVVVDVSHEDPEVKFNWYVDGVEVHNAKTKPREEQYNSTYRVVSVLTVLHQDWLNGKEYKCKVSNKALPAPIEKTISKAKGQPREPQVYTLPPCREEMTKNQVSLWCLVKGFYPSDIAVEWESNGQPENNYKTTPPVLDSDGSFFLYSKLTVDKSRWQQGNVFSCSVMHEALHNHYTQKSLSLSPGK
chain 2: EIVMTQSPASLSVSPGERATLSCRASQSVSSNLAWYQQKPGQAPRLLIYGASTRATGIPARVSGGGSGTEFTLTISSLQSEDFAVYYCQQYKNWPFTFGPGTKLEIKGGGGSGGGGSGGGGSGGGGSQVQLVQSGAEVKKPGSSMRVSCKASEDTFSSYAISWVRQAPGQGLEWMGGTAPIFGTTNYAQKFQGRVTITADKSTSTAYMELSSLRSEDTAVYYCARGGPYFDYWGQGTLVTVSSASEPKSSDKTHTCPPCPAPEAAGAPSVFLFPPKPKDTLMISRTPEVTCVVVDVSHEDPEVKFNWYVDGVEVHNAKTKPREEQYNSTYRVVSVLTVLHQDWLNGKEYKCKVSNKALPAPIEKTISKAKGQPREPQVCTLPPSREEMTKNQVSLSCAVKGFYPSDIAVEWESNGQPENNYKTTPPVLDSDGSFFLVSKLTVDKSRWQQGNVFSCSVMHEALHNHYTQKSLSLSPGK
With B6, the “EC50 … (RTCA, human T cells, E:T 10:1)” value in assay [2] stood at 0.263 nM.

B7: PR006003, anti-B7H4xCD3 VH(E2)-Fc-scFv(PR003366), hIgG1(dCH1, KiH, LALA) (bispecific antibody)
chain 1: not shown
chain 2: EIVMTQSPASLSVSPGERATLSCRASQSVSSNLAWYQQKPGQAPRLLIYGASTRATGIPARVSGGGSGTEFTLTISSLQSEDFAVYYCQQYKNWPFTFGPGTKLEIKGGGGSGGGGSGGGGSGGGGSQVQLVQSGAEVKKPGSSMRVSCKASEDTFSSYAISWVRQAPGQGLEWMGGTAPIFGTTNYAQKFQGRVTITADKSTSTAYMELSSLRSEDTAVYYCARGGPYFDYWGQGTLVTVSSASEPKSSDKTHTCPPCPAPEAAGGPSVFLFPPKPKDTLMISRTPEVTCVVVDVSHEDPEVKFNWYVDGVEVHNAKTKPREEQYNSTYRVVSVLTVLHQDWLNGKEYKCKVSNKALPAPIEKTISKAKGQPREPQVCTLPPSREEMTKNQVSLSCAVKGFYPSDIAVEWESNGQPENNYKTTPPVLDSDGSFFLVSKLTVDKSRWQQGNVFSCSVMHEALHNHYTQKSLSLSPGK
Turning to B7, in assay [1], the “EC50 of T cell-mediated cytotoxicity to MDA-MB-468 (RTCA)” value is 0.0465 nM and the “Max cytotoxicity (%) of T cell-mediated cytotoxicity to MDA-MB-468 (RTCA)” value worked out at 95.1%.

For the origin of these results see patent US20260125468A1 (NONA BIOSCIENCES SUZHOU, published 2026).
